Results from a protein production outcome set (Wang et al. 2014).

Assay: label from the status in PepcDB records

Row | Sequence | protein production
1 | MASWLVLCRFVHFAVVLTLVGAWVFRPLLLGRDSAQSGHGAVHRQLDRLSRWLTLIGLGSGLCWLLLITASMAGSWSAALDPATVQLVLGKTFFGQVWTWHLLLNLLLLGLLLTPLGRRLPLQLGLGALLLATLAPVGHGAMLDGLAGQLLILNQVVHLSCVGIWLGGLLVLLLVLRQPPQASVEPLLRRFSGVGYGLVAGLLASGLINVRVLTGQWWPTPLFSGFALILLIKVLLVAGMLALALFNRLRIRGCDQRLASLRNSVQLEWLLGVAAVAAVSLLGTLPPMQVI | failed
2 | MKYLAFSIVFILTAFTRVTAQNLDGIDKSLSLSKMKTRARIAEETGDIYTALFYYEEVVRNDSSDLKALYQVAEMQRFTRNYKAAEVTYGKIHEIAAADYPLAQYYQGLMQKMTGRYEDAKQTFSEFRKNSAALADKTFKATLARDISGCDSGITYRDFPQNTQIKNAGKSVNFPHTEFSPVILDSTTLAFGSLRIDSVIYYDTRGEHYEKQPVRQLYEAKKVKGQWVEKGLLEAINDPAMDMGNFVYSPTTDRYYFTKCTKNHHGKVSCAIYYSERVSGKWSHPSKLPDPINIEGYTATQPTIVIDTTSSSAATTTPKNMPPRKTGGNKPVPKPVVNTIEYLYFVSDRPKGKGGLDIWYTSYNASKKTWNEPTNLAVANTPETECTPFYHVPTQTLYFSSNGLVNAGGLDIYKLEKDGRRFGRPENLSFPVNSPQDELSFVLADNAKTGFFVSNRPGGTPFFHETCCDDIFSFEVIPPPPFVCTLDLSVLDVAAKNNCDGELLNINQVNLKTKAAEKDTVRLSSCKYTVSLAQHVKYTFFINKPGYVTDTLSFETRDMCATPTITKSLTLVPVSVSMKNSEPVIETPVEGKAFVLKDIQYETNQTDLNDEAKAAIDNILIPFLKEHPTDKIIISSHTDDVGSHKYNENLSDQRALKVMQYLIQKGISAKQIQAKGYGETKPIASNINPDGSENEIGRSINRRTEFLISK | failed
3 | MTTVIVGAGRIGSSVIELAADANIGVTVIEQEHERAHEFKADENCHVIHDDATERETLHEAEVGNADAIIATTDQDTTNLMVLMLARELGCETLVSVVHAEENIPLFRQLGATIIENPQRLIAEYLFRGTHDPGIQGFMHVGDRDGGAEVFEISVADGAPIIGKTLEQADVAGFLPPSMVVVAVERDGEIIIPRGNTQIETDDLVTVFSKEGIINEVVEPFKPEAKRTGDSDTE | failed
4 | MTKHFLPRRTRKRRPEPLVKVRIDPPKLPKIRLLPRRAPRPRRPEPLVKVRIDPPRIRLPRIRRPRLTPFRERNPVVIGAVGLTFLALLTVAAFNADSLPLIGGGETYSAAFSEAGGLKPGDEVRIAGVKVGKVKDVDLDGDHVKVTFKIKGDPGFGTETGASIRVKTILGAKYLALRPKGPGQLKPGSEIPLKRTVPAYDVVQAFSDLTTTTEKVDTDQLAKALDTISTTFQDSPAEVRASIKGLSKISRTVASRDKALGELLDHANGVTGVLAEHSEDFTALVKDGGKLFKEISKRRKAIHKLLKSSAALGIELSGLVEDNDKEIGPALKGLNRVVQMLERNQSSLDRSVKLLAPYVRVFTNALGNGRWFDSYVQNLVAAPVVPRTGGAQ | failed
5 | MPAGSDWRTQPPSDYAQWNPAPRMPNQPKPLTTAHHQFAAIVQNSFDAIVSKDVEGNVQSWNPAAEQIFGWTADEMIGNSIRVLIPPDRQHEEDDILQRIRTGEMVPKFETERLHKSGRRIHVAVTVSPLRDPDGRIVGASKIAHDITETVEIRRRLVASEHQFRSLANSIPQLAWIAESDGTVFWYNDRWFDYTGTTLEQLRGSGWTALHHPDHLERVRSKLQHSWDTGEAWEDTFPLRGKDGEYRWFLSRAMPLRDDSGEVWRWFGTNTDITVQRQHEQQIQMLMGEINHRAKNMLAVVQAMVMRTADRSFAESLGARLQALSRNQDLLIKRNWSGTPIGELIESQLAAVNDLIGTRVLIEGERELLLSPVASETIGLAIHELTTNATKYGALSNADGTVRIACEIRHTVDGPKLDLIWHEQGGPPVGEPNRAGFGTVMIDRNPRSALGADVEISYPESGLRWCLNAPLDRLVATP | not failed
6 | VGKLKIYFGFAAGVGKTYAMLSDAKDQLAAGVDVVAGYIEPHAREETLRMLEGIPIIPPKAINHKNIALKEFDLDEALKRKPELILVDELAHTNASGVRNKKRFQDVEELLQAGIDVYTTVNVQHIESLNDIVEGITKVAVRETIPDYVFDEADRVKLIDIEPDELLKRLEQGKIYQPARAKTAMQNFFTRENLKLLREIAMRKAADRISHEYDQTGIYPE | not failed
7 | MIRLILILINILFCHYLYALDCQKRLFDISINEKLSIQESLDELAKYCSFSIIVKDKIAKEKLETLQNSVNIHQMSLDEIFNFFIKEHDLSYDFDGKILRISGINTKIFKISYITSIREGQSITKASVDAKPRQSEYSGSFDDAEDNMIKSMEKFDFWQNIEKEIIVLLKNSHEDYEAKTPIINPNAGLIIVTGTNSQLKSVKNYLQKLENRLKKQVIIDVSILAVSLNESHSSGINWQNFNIGLNSQVNNENSFIQFQNGQGFVKNLGLRANLNFDSIINFLSQNGKTSVLSNPKLMALNNQQAIISVGDTINYQVKESSKGTENGTTVSESYNNYSIFVGILLNILPEISDDGKIMLRINPSLSDFKYPEDNKRQKEPRTIAPDTIQKKLSSVVQVENNQTLILGGLISHDKSNEKNSINFLSKIPILGSLFKGEVLNSKATEIVFIITPSIVDSVNAPSLKDLGFKHYELEHHHHHH | failed
8 | MGHHHHHHSHGIVPGSVVLMAGEPGVGKSTLLLEVASRWASMKEGDGTRTALYVTAEESAGQVRLRAERTAAVKDTLYLAAESNLDVVFGHVNQVKPSLLIVDS | failed
9 | MSYLDNVRVFVRVVELGTLSAAGRDQRVTPAVASNRIKELERHMGVRLFNRTTRKLTPTEHGRVFYEGAVKILEAVNEAESAIADLSRNPKGALKITAPLGIGRRLIAPGIPEFHDRYPDIEVRLRLSDHNVDILAEGVDIAFKLGILEDSNLRMRGIMNCDRVLCGSPRYFERRGIPSSPDDLLSHSHDCLLLRYPGSKEYYWTLQTPDGVRKFEVGGPYDSDDGDVLTQWALDGRGIVNKPLFEVKQHIDEGLLVPVLEETPPLGAQLAAIYPHKRFQDPKVRLMIDFMAERCQRLIGKMLAESAEVQERSSA | failed
10 | MDKIGMTNQITGVISKFDTNIRTIVLNAKDGIFTCNLMIFVKNTDKLTTLMDKLRKVQGLEHHHHHH | failed
11 | MYFGQNEACKKNHVVIHNELGPGIDLNIACRQFSIERTPSMFHTLKYKDPFYIIEFEDNNQLPHGERWYCLLSHGTRPKYWYDIEVYRQGYYPSCGQLRSWIAKQDGIWFTRRYDSPPGHVLNWKIQ | failed
12 | MKDNTPASSPERWIIYGANGYTGELIAREAVKRGHHPILAGRSLEKVQSLAAELGLQSLAFSLEDKSSAVQHISGSSLVLNCAGPFSSTAKPMMKACLEAGAHYLDITGEISVFEFAQTLQSQAKEASVVLCSGVGFDVIPTDCIAATLKAALPDATHLSLGFDSRSGFSPGTAKTSVEGLAQGGKVRLNGKITTVPLAYKVHNIDFGDGEKLAMTIPWGDVSTAYYTTGIENIDVFIPGSPNMIKNAKRANWVRPLLGITWVQNLIKSRIERTVKGPNEEQRNQLPTYVWGKASNKLGQSKTARVQTANGYSLTVTGSLAIVEHLLHTKPEAGVYTPSKLMGSNFVSQLPGSSGITIEE | failed
13 | MANVSLNKVDKQALVHQPNLLRECFALLVNAHYQTSPNDLLHLLRDDNSSVYLAMDKQNIIGVILTVEEGGLDDELIEAIQLGQRRPKGHLTPITIINQLGLVKVGKLITSRVMRIAVHPDLQGSGIGKRMLTLLEESVGAHVDYLSTSFGATDELIQFWQQAGYQSIRLGTMRDAASGCYSLLMVRQLANKSQ | failed
14 | MKTDLIYGVEDRPPFKDALFAALQHLLAIFVAIITPPLIIASALKLDVEKTSFLVSMSLFASGVSTFIQCRRIGPIGAKLLCIQGTSFSFIGPIIATGLVGGLPLIFGSCIAAAPIEMVVSRTFKYLRNIITPLVSGIVVLLIGLSLIKVGIVSCGGGYSAMDDGSFGSWENLSIAALVLLSVLFFNRCKNKYLRMSSIVFGLCLGYGLAFALGKVNMSALNVEMLMSFNIPQPFKYGIDFNISSFIAIGLVYLITAIEATGDVTANSMISGLPIEGDSYLKRVSGGVMADGFNSLLAGIFNSFPNSIFAQNNGIIQLTGVASRYVGYYIAAMLVLLGLFPIVGAIFSLMPDPVLGGATLLMFGTVAAAGIRIVSSQEIGRKETLVLAVSLSLGLGVELMPDVLKQAPEAIRSIFSSGITTGGLTAIVANMVIRVK | not failed
15 | MDGSFVQHSVRVLQELNKQREKGQYCDATLDVGGLVFKAHWSVLACCSHFFQRIYGDGTGGSVVLPAGFAEIFGLLLDFFYTGHLALTSGNRDQVLLAAKELRVPEAVELCQSFQPQTSVGQAQSGLGQPASQDVKSHLKEPTDLDEEEVFKTLSLASVDQEPRDTEQPQLGTPAQSSTAFLCGKLTQALKPSPSEDKESEDCKEPPRPFEAGGAPLQGESNEWEVVVQVEDDRDGDYVSEPETVLTRRKSKVIRKPCAAEPALGAGSLTAEPTDSRKGAAVPVECPTCHKKFLSKYYLKVHNRKHTGEKPFECPKCGKCYFRKENLLEHEARNCMNRSEQVFTCSVCQETFRRRMELRLHMVSHTGEMPYKCSSCSQQFMQKKDLQSHMIKLHGAPKPHAVSASQGWGSGGSGTAQSCPHLDVLPLPVSPTCSAPLVPSASCLGRSYSCTRLLSIVEKSSLCVRNAGTGPRAATGCRCTSRPSTGMKGLMSVSSAAMPSPRRPTSTCTCARTPARSLSSATSVGRPSAPKFGQAQPHPHGREAFQL | not failed
16 | MRRSSSKKKSGQSTESVTTDLFRSASSKASNKEMDRIDHLFNQYANKSSSLIDPEGIEELCSNLEVSHTDIRILMLAWKMKAEKQGYFTHISFPDMGDYNPELAWPLILDNFVEWIQEKQA | failed
17 | MEIAKGVEMLQLEFQEFIIHPILLWNDEMAVLIDTGFPGQFEDIQVEMKRVGVSVDKLKVVILTHQDIDHIGSLPDLLENGVSDIKVYAHELDKRYIEGDLPLLKDVHVENPPKGKVSDTVIDGQELPYCGGILILHTPGHTPGHISLYLKQSKTLIAGDSMYSVNGKLGGIHAPTTLNIMEAQQSLKKYLNLDIESVVCYHGGLSKGNIKIQLQNL | failed
18 | MEEHGHHEMEGTPLGCHSHIKLLKINREHLVTNIRNTQCLVDNLLENGYFSAEDAEIVCACPTKPDKVRKILDLVQSKGEEVSEFFLYVLQQLEDAYVDLRLWLSEIGFSPSQLIRTKTIVNTDPVSRYTQQLRHQLGRDSKFMLCYAQKEDLLLEETYMDTLMELVGFNNENLGSLGGLDCLLDHSTGVLNEHGETVFVFGDAGVGKSMLLQRLQSLWASGRLTSTAKFFFHFRCRMFSCFKESDMLSLQDLLFKHFCYPEQDPEEVFSFLLRFPHTALFTFDGLDELHSDFDLSRVPDSCCPWEPAHPLVLLANLLSGRLLKGAGKLLTARTGVEVPRQLLRKKVLLRGFSPSHLRAYARRMFPERTAQEHLLQQLDANPNLCSLCGVPLFCWIIFRCFQHFQTVFEGSSSQLPDCAVTLTDVFLLVTEVHLNRPQPSSLVQRNTRSPAETLRAGWRTLHALGEVAHRGTDKSLFVFGQEEVQASKLQEGDLQLGFLRALPDVGPEQGQSYEFFHLTLQAFFTAFFLVADDKVSTRELLRFFREWTSPGEATSSSCHSSFFSFQCLGGRSRLGPDPFRNKDHFQFTNLFLCGLLAKARQKLLRQLVPKAILRRKRKALWAHLFASLRSYLKSLPRVQSGGFNQVHAMPTFLWMLRCIYETQSQKVGRLAARGISADYLKLAFCNACSADCSALSFVLHHFHRQLALDLDNNNLNDYGVQELQPCFSRLTVIRLSVNQITDTGVKVLCEELTKYKIVTFLGLYNNQITDIGARYVAQILDECRGLKHLKLGKNRITSEGGKCVALAVKNSTSIVDVGMWGNQIGDEGAKAFAEALKDHPSLTTLSLAFNGISPEGGKSLAQALKQNTTLTVIWLTKNELNDESAECFAEMLRVNQTLRHLWLIQNRITAKGTAQLARALQKNTAITEICLNGNLIKPEEAKVFENEKRIICF | failed
